B1: human cell line recombinant human factor VIII (human-cl rhFVIII), a human B-domain-deleted factor VIII protein produced in the human cell line HEK293F (other, UniProt P00451 20-2351, looked up)
chain: ATRRYYLGAVELSWDYMQSDLGELPVDARFPPRVPKSFPFNTSVVYKKTLFVEFTDHLFNIAKPRPPWMGLLGPTIQAEVYDTVVITLKNMASHPVSLHAVGVSYWKASEGAEYDDQTSQREKEDDKVFPGGSHTYVWQVLKENGPMASDPLCLTYSYLSHVDLVKDLNSGLIGALLVCREGSLAKEKTQTLHKFILLFAVFDEGKSWHSETKNSLMQDRDAASARAWPKMHTVNGYVNRSLPGLIGCHRKSVYWHVIGMGTTPEVHSIFLEGHTFLVRNHRQASLEISPITFLTAQTLLMDLGQFLLFCHISSHQHDGMEAYVKVDSCPEEPQLRMKNNEEAEDYDDDLTDSEMDVVRFDDDNSPSFIQIRSVAKKHPKTWVHYIAAEEEDWDYAPLVLAPDDRSYKSQYLNNGPQRIGRKYKKVRFMAYTDETFKTREAIQHESGILGPLLYGEVGDTLLIIFKNQASRPYNIYPHGITDVRPLYSRRLPKGVKHLKDFPILPGEIFKYKWTVTVEDGPTKSDPRCLTRYYSSFVNMERDLASGLIGPLLICYKESVDQRGNQIMSDKRNVILFSVFDENRSWYLTENIQRFLPNPAGVQLEDPEFQASNIMHSINGYVFDSLQLSVCLHEVAYWYILSIGAQTDFLSVFFSGYTFKHKMVYEDTLTLFPFSGETVFMSMENPGLWILGCHNSDFRNRGMTALLKVSSCDKNTGDYYEDSYEDISAYLLSKNNAIEPRSFSQNSRHQAYRYRRGEITRTTLQSDQEEIDYDDTISVEMKKEDFDIYDEDENQSPRSFQKKTRHYFIAAVERLWDYGMSSSPHVLRNRAQSGSVPQFKKVVFQEFTDGSFTQPLYRGELNEHLGLLGPYIRAEVEDNIMVTFRNQASRPYSFYSSLISYEEDQRQGAEPRKNFVKPNETKTYFWKVQHHMAPTKDEFDCKAWAYFSDVDLEKDVHSGLIGPLLVCHTNTLNPAHGRQVTVQEFALFFTIFDETKSWYFTENMERNCRAPCNIQMEDPTFKENYRFHAINGYIMDTLPGLVMAQDQRIRWYLLSMGSNENIHSIHFSGHVFTVRKKEEYKMALYNLYPGVFETVEMLPSKAGIWRVECLIGEHLHAGMSTLFLVYSNKCQTPLGMASGHIRDFQITASGQYGQWAPKLARLHYSGSINAWSTKEPFSWIKVDLLAPMIIHGIKTQGARQKFSSLYISQFIIMYSLDGKKWQTYRGNSTGTLMVFFGNVDSSGIKHNIFNPPIIARYIRLHPTHYSIRSTLRMELMGCDLNSCSMPLGMESKAISDAQITASSYFTNMFATWSPSKARLHLQGRSNAWRPQVNNPKEWLQVDFQKTMKVTGVTTQGVKSLLTSMYVKEFLISSSQDGHQWTLFFQNGKVKVFQGNQDSFTPVVNSLDPPLLTRYLRIHPQSWVHQIALRMEVLGCEAQDLY
notes: B-domain-deleted construct made in HEK293F cells

Key:
[1] = molecular target: human von Willebrand factor (human) (UniProt P04275); assay: SPR, Biacore 3000, vWF amine-coupled to CM5 chip, global fit to a simple interaction model
[2] = molecular target: T1, human von Willebrand factor (human, UniProt P04275 764-2813, limits assumed); assay: as above
T1 construct: The preparation used in the assay is not described; also called vWF
Protocol: The binding of human-cl rhFVIII to human von Willebrand factor was analyzed using surface plasmon resonance with the Biacore 3000 instrument. The recombinant factor VIII products X and Y derived from murine cell lines (murine-cl rhFVIII X and Y) were used as comparators.
The von Willebrand factor was immobilized through primary amines to the carboxymethylated dextran of a CM5 sensor chip. The binding data were globally fit to a simple interaction model yielding kinetic parameters and affinities. The kinetics in binding and affinity to von Willebrand factor were analyzed. Furthermore, a quantitative measure of the capacity of Human-cl rhFVIII to bind to von Willebrand factor in comparison with other recombinant factor VIII products was obtained.

Row | Molecule | Kd [1] [nM] | koff [1] [s⁻¹] | kon [1] [M⁻¹ s⁻¹] | Kd [2] [nM] | koff [2] [s⁻¹] | kon [2] [M⁻¹ s⁻¹]
1 | murine-cl rhFVIII X (recombinant factor VIII product X derived from a murine cell line) (from UniProt P00451 20-2351) | 0.32 | 0.00105 | 3.3e+06 | – | – | –
2 | murine-cl rhFVIII Y (recombinant factor VIII product Y derived from a murine cell line) (from UniProt P00451 20-2351) | 0.34 | 0.00105 | 3.1e+06 | – | – | –
3 | B1 | – | – | – | 0.21 | 0.00095 | 4.5e+06

Source: patent US20110262424A1 (published 2011)
